The values that follow come from US20240174744A1 (SCIRHOM, published 2024).

Numbering of substitutions follows the chain as printed.

The chains are these.
T1: dog iRhom2 full length wild type, C-terminally tagged with 3 consecutive copies of the T7 epitope (dog, UniProt Q00M95 1-827)
T1 construct: whole, on cells; also called Dog-iR2-FL-WT-T7
T1 sequence: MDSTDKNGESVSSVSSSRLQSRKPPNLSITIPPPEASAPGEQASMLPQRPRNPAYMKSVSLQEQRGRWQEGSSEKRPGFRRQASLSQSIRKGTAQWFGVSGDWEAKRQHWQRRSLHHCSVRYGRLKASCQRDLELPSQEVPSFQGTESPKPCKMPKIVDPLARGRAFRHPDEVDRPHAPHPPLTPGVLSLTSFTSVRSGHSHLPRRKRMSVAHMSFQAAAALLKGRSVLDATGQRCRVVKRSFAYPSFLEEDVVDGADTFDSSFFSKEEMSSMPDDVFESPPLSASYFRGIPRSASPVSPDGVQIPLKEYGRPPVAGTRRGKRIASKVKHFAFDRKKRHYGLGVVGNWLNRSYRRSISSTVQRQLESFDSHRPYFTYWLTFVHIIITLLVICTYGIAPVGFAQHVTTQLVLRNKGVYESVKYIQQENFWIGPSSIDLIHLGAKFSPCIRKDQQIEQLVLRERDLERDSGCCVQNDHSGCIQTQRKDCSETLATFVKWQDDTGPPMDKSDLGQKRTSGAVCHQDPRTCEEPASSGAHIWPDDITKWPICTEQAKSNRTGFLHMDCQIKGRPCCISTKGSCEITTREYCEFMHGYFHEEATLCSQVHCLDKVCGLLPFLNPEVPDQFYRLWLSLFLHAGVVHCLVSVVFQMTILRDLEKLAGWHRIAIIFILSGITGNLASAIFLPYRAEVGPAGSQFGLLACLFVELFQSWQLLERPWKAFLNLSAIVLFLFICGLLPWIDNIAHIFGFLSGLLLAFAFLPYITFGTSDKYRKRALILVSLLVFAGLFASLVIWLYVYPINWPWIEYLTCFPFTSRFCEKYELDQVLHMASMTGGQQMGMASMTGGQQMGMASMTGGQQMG

T2: human iRhom2 (inactive rhomboid protein 2, isoform 1), endogenously expressed on human cells (human, UniProt Q6PJF5 1-856)
T2 sequence: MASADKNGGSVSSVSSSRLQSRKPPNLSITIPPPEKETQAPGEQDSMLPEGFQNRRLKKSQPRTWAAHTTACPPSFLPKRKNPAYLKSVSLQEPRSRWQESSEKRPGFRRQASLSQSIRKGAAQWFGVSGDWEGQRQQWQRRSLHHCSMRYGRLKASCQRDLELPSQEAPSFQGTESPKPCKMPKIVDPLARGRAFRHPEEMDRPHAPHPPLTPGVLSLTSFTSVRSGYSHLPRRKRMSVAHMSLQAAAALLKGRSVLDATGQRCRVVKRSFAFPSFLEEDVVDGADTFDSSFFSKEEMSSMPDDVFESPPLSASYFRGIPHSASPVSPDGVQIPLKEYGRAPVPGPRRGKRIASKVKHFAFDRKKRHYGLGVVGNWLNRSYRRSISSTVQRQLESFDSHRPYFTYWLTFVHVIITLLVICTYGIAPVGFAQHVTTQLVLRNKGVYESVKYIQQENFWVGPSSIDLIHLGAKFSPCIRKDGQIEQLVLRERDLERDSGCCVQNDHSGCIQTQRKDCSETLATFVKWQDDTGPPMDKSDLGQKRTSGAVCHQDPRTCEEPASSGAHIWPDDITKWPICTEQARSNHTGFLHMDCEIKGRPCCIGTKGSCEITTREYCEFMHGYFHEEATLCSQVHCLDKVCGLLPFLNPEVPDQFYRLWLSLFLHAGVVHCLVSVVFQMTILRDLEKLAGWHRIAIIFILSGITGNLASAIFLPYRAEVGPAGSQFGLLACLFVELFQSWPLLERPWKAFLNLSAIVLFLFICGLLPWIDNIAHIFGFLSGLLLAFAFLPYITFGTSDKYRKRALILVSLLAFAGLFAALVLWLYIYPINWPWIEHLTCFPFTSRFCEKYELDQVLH

B1: antibody 49 (antibody, V domains shown)
VH: QVTLKESGPGILQPSQTLSLTCSFSGFSLSTFGMGVGWIRQPSGKGLEWLAHIWWDDDKYYNPALQSRLTVSKDTAKNQVFLKIANVDTADTAIYYCARVGNYGSNYWYFAVWGTGTTVTVSS
VL: QIVLTQSPAIMSASPGEKVTMTCSASSSVSYMYWYQQKPGSSPRLLIYDTSNLASGVPVRFSGSGSGTSYSLTISRMEAEDAATYYCQQWNSYPLTFGAGTKLELK
notes: Mouse IgG, kappa light chain; also called clone #49
B2: antibody 54 (antibody, V domains shown)
VH: QVTLKESGPGILQPSQTLSLTCSFSGFSLSTFGLGVGWIRQPSGKGLECLAHIWWDDDKYSNPALKSRLTISKDTSKNQVFLKIANVDSADTATYFCARILNYGSNYWYFDVWGTGTTVTVSS
VL: B1 VL with I10L, V29I, Y70F, I74V
notes: Mouse IgG, kappa light chain; also called clone #54
B3: antibody 56 (antibody, V domains shown)
VH: QVTLKESGPGILQPSQTLSLTCSFSGFSLSTFGMGVGWIRQPSGKGLEWLTNIWWDDDKYYNSVLKSRLTISKDTSKNQVFLKIANVDTADTATYYCARIAAYGSNYWYFDVWGTGTTVTVSS
VL: B1 VL with L45V, A54S, N91S
notes: Mouse IgG, kappa light chain; also called clone #56

One assay concerns the target T1, dog iRhom2 full length wild type, …. Briefly: FACS, MEF-DKO-Dog-iR2-FL-WT-T7 cells. As to the method: In brief, immortalized MEF-DKO-EV control cells, MEF-DKO-rhesus-iR2-FL-WT-T7 cells, MEF-DKO-cyno-iR2-FL-WT-T7 cells, MEF-DKO-dog-iR2-FL-WT-T7 cells and MEF-DKO-rabbit-iR2-FL-WT-T7 cells, as well as their respective iRhom1 counterparts, were harvested with 10 mM EDTA in PBS, washed and resuspended in FACS buffer (PBS, 3% FBS, 0.05% sodium azide), and seeded in Nunc U-bottom 96-well plates (Thermo Fisher Scientific, USA) at approximately 3×10⁵ cells per well. To pellet cells and remove supernatants, the plates were centrifuged at 1,500 rpm and 4° C. for 3 minutes. For primary staining, cells were resuspended in 100 μl per well of either FACS buffer alone (controls), mouse monoclonal anti-T7 IgG (Merck Millipore, USA) at 3 μg/ml FACS buffer or the antibodies of the present disclosure also at 3 μg/ml FACS buffer and incubated on ice for 1 hour. Afterwards, plates were centrifuged at 1,500 rpm and 4° C. for 3 minutes and washed twice with 200 μl per well of FACS buffer. For secondary staining, cells were spun down and resuspended in 100 μl per well of PE-conjugated goat anti-mouse IgG F(ab′)2 detection fragment (Dianova, Germany) diluted 1:100 in FACS buffer. Protected from light, the cell suspensions were incubated on ice for 1 hour. Plates were then centrifuged at 1,500 rpm and 4° C. for 3 minutes and washed three times with 200 μl per well of FACS buffer. Finally, cells were resuspended in 150 μl per well of FACS buffer and analyzed using a BD Accuri™ C6 Plus flow cytometer (Becton Dickinson, Germany).
For B1, the binding result was “binds”.

With B2, the binding result is given as “binds”.

For B3, the binding result is “binds”.

Another assay addresses T2, human iRhom2 (inactive rhomboid protein …). As to the kind of experiment: cell-based or functional assay.
In the case of B1, the “inhibition of LPS-induced release of TNFα from THP-1 cells, recombinant antibody” value (“inhibition” below) turned out to be 59.9 % inhibition.

With B2, the “inhibition” value is 67.9 % inhibition.

B3: the “inhibition” value was 65.8 % inhibition.
